Data set [1] has as its system Hep3B cells. Put plainly: Co-transfection of SQT-Bim-BH3 mRNA with Bcl-2-like Trap mRNAs, % phase confluence. It counts as cell-based. From the text:
C32, Bcl-xL del.C24, Mcl-1 del.N/C(2010), and Bcl-xL (D61A) del.C24.

For data set [2], the system named is HeLa cells. The data set can be described thus: PARP-1 cleavage by SDS-PAGE and Western blotting after transfection of mRNAs encoding SQT-BH3 constructs. It counts as cell-based. As to conditions: 4 hours after transfection. An excerpt:
The cleavage of PARP-1 was detected by the appearance of a faster-migrating band and concomitant loss of the full-length band by SDS-PAGE and Western blotting. Western blotting with anti-actin antibodies served as a loading control.
A general note: A western blot detects proteins with antibodies after separation by electrophoresis.

In the next data set the target is T1, MCL-1 (Homo sapiens, UniProt Q07820).
T1 construct: performed in lysates of HeLa cells transfected with mRNAs encoding SQT-BH3 constructs; endogenous in cells; host or cells: HeLa
Put plainly: Co-immunoprecipitation in lysates of transfected HeLa cells. It counts as binding. Conditions: lysates of HeLa cells transfected with mRNAs.

Data set [3] relates to HeLa cells. The data set can be described thus: Long-term live cell imaging of GFP-positive cells after mRNA transfection. It counts as cell-based.
Data set [4] concerns Hep3B cells. Put plainly: Cell death by YOYO-3 with MC3-formulated LNPs. It counts as cell-based. As to conditions: relatively high concentration. The protocol: The efficacy of mRNAs encoding SQT-BH3 constructs in inducing cell death was tested both in hepatocellular carcinoma cell lines as well as in primary hepatocytes using lipid nanoparticle (LNP)-formulated constructs. Hep3B cells were treated with varying doses (0.78 ng to 50 ng) of MC3-formulated LNPs in the presence of YOYO-3 (Life Technologies), a DNA dye that is taken up preferentially by dead cells that is used to measure the extent of cell death. MC3 lipid nanoparticles included MC3 50%, DSPC 10%, Cholesterol 38.5%, PEG-DMG 1.5%, N:P ˜5.5.

In another data set the test system is primary hepatocytes. Put plainly: Apoptosis induction by MC3 LNP-formulated mRNAs in primary hepatocytes cultured in vitro. It counts as cell-based. As to conditions: LNPs.

“Also recorded” adds a separate entry of the source.

T1 sequence (Q07820 whole entry): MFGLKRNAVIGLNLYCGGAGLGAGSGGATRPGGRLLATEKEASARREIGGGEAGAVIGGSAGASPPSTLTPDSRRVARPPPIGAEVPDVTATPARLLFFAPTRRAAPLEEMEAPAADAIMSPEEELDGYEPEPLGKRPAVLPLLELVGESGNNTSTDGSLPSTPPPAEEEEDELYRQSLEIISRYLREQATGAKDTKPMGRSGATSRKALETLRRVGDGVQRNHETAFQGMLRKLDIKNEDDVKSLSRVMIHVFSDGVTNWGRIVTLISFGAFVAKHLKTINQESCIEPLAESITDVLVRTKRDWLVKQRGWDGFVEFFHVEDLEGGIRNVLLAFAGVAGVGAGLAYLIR

B1: Bcl-xL del.C24 BH3 Trap.cFLAG: Bcl-2-like trap mRNA, SEQ ID NO: 83, FLAG tag (nucleic acid)
chain: ATGTCCCAGAGCAACAGGGAACTCGTAGTCGATTTCTTGTCCTACAAGCTCAGTCAGAAGGGCTACTCTTGGTCCCAATTTTCCGACGTGGAAGAAAATCGGACAGAAGCCCCTGAGGGAACCGAGAGTGAGATGGAGACCCCGTCTGCAATCAACGGGAACCCTTCTTGGCACTTGGCCGACAGTCCCGCTGTGAATGGCGCCACAGGTCACAGTTCATCACTCGACGCTAGAGAAGTTATACCCATGGCAGCAGTCAAGCAAGCTCTGCGGGAGGCCGGCGACGAGTTCGAACTTCGGTACCGCCGAGCTTTTTCTGACCTGACTAGTCAGCTGCATATTACTCCGGGCACTGCGTACCAGTCGTTCGAACAGGTGGTTAATGAACTATTTCGAGACGGCGTGAATTGGGGCAGAATTGTAGCCTTTTTCTCCTTTGGAGGTGCACTGTGTGTCGAGAGCGTCGATAAGGAAATGCAGGTGTTGGTGAGCCGTATCGCGGCCTGGATGGCCACGTATCTGAACGACCATTTGGAACCATGGATCCAAGAAAACGGGGGTTGGGATACTTTCGTGGAGTTATATGGCAACAATGCTGCAGCGGAAAGTCGCAAGGGCCAGGAACGAGACTATAAAGATGACGACGATAAA
modifications: FLAG tag; Synthetic Bcl-xL del.C24 mRNA sequence with FLAG epitope tag
As to B1, the “fate of SQT-BimBH3-transfected cells co-transfected with Trap construct” value in the data set on Hep3B cells [1] was “exhibited substantial apoptosis and cell death”.

B2: Bcl-w (C29S/A128E) BH3 Trap.n9V5: Bcl-2-like trap mRNA, SEQ ID NO: 81, V5 tag (nucleic acid)
chain: ATGATTCCCAATCCGCTCCTCGGGCTTGACGCTACACCAGCCAGTGCACCAGACACGAGGGCGCTGGTTGCCGATTTCGTGGGATACAAGCTCAGGCAAAAAGGGTACGTAAGCGGTGCCGGGCCCGGGGAGGGACCGGCTGCCGATCCACTCCACCAGGCTATGAGGGCAGCTGGGGACGAATTCGAAACACGCTTTCGGCGGACTTTCTCCGACCTTGCCGCACAGCTACACGTCACTCCCGGGAGCGCTCAGCAGCGCTTCACGCAGGTCTCAGACGAATTGTTCCAAGGCGGCCCTAATTGGGGAAGATTGGTGGCCTTCTTCGTGTTTGGGGCAGCACTGTGCGCTGAGTCCGTGAACAAAGAAATGGAACCCCTCGTTGGCCAAGTCCAAGAATGGATGGTGGAATATCTGGAAACACAGTTAGCGGATTGGATTCACTCATCTGGGGGCTGGGCTGAGTTTACAGCACTGTACGGGGACGGTGCCCTAGAGGAGGCCCGAAGACTGAGGGAAGGCAACTGGGCCAGCGTTCGCACGGTGTTGACCGGCGCGGTTGCTTTGGGCGCTTTGGTTACCGTCGGCGCATTCTTCGCCAGTAAA
modifications: V5 tag; Synthetic Bcl-w (C29S/A128E)BH3 mRNA sequence with V5 epitope tag
As to B2, in the data set with Hep3B cells [1], the “fate of SQT-BimBH3-transfected cells co-transfected with Trap construct” value is reported as “remained alive”. Moreover, in the data set with Hep3B cells [1] (co-transfected with SQT-Bim-BH3 mRNA, ratio Trap construct:SQT-BH3 construct 1:2, 24 hour period), the “inhibition of SQT-BH3-induced cell death (% phase confluence)” value is given as “most potent inhibitor of SQT-BH3-induced cell death; also recorded: to a substantially greater degree than Bcl-xL (D61A) del.C24 BH3 Trap.cFLAG”.

B3: SQT-Noxa-BH3: mRNA (SEQ ID NO: 52, FLAG) encoding SQT scaffold with Noxa BH3 domain in N-terminus (nucleic acid)
chain: ATGATCCCAAGACCCGCAGAGCTCGAAGTGGAATGCGCTACCCAACTTAGACGGTTCGGAGACAAGCTGAACTTTCGGCAGAAGCTCCTGGGACTCTCAGAAGCGAAGCCTGCCACCCCCGAAATCCAGGAAATCGTCGACAAGGTCAAGCCGCAGCTTGAGGAAAAGACCAACGAGACTTACGGAAAACTGGAGGCCGTGCAGTATAAGACCCAAGTGTTGGCCTCCACCAACTACTACATTAAGGTCCGCGCCGGCGATAACAAGTACATGCACCTGAAGGTGTTCAATGGTCCTCCGGGACAGAACGCGGACAGGGTGCTGACTGGCTACCAAGTGGACAAGAACAAGGACGACGAGCTGACGGGCTTCGACTACAAGGATGATGATGACAAA
modifications: FLAG tag; Synthetic SQT-NoxA-BH3 mRNA sequence with FLAG epitope tag
Regarding B3, the “PARP-1 cleavage, extent” value in the data set with HeLa cells [2] is “also induced PARP-1 cleavage, although to a lesser extent than SQT-PUMA-BH3 or SQT-Bim-BH3”. The “co-immunoprecipitation of MCL-1” value in the data set with MCL-1 is “able to co-immunoprecipitate”. Besides, the cell-killing activity result with HeLa cells [3] is “did not show cell-killing activity”. In the data set on Hep3B cells [4], the “apoptosis and cell death (YOYO-3)” value was “behaved similar to the empty MC3 LNP control and mRNAs encoding SQT”. The PARP-1 cleavage entry with primary hepatocytes is reported as “did not”.

For the origin of these results see patent US20190119357A1, “MESSENGER RIBONUCLEIC ACIDS FOR THE PRODUCTION OF INTRACELLULAR BINDING POLYPEPTIDES AND METHODS OF USE THEREOF” (ModernaTX, Inc., priority 2015, published 2019).
